Reference: publication doi:10.1101/282715 (bioRxiv, 2018)

Molecular target: the molecule itself
Test: cryo-EM structure

B1: mouse TRPC4 (residues a.a. 1-758, excluding a.a. 759-974) (natural protein, UniProt Q9QUQ5 1-758, looked up)
chain: MAQFYYKRNVNAPYRDRIPLRIVRAESELSPSEKAYLNAVEKGDYASVKKSLEEAEIYFKININCIDPLGRTALLIAIENENLELIELLLSFNVYVGDALLHAIRKEVVGAVELLLNHKKPSGEKQVPPILLDKQFSEFTPDITPIILAAHTNNYEIIKLLVQKGVSVPRPHEVRCNCVECVSSSDVDSLRHSRSRLNIYKALASPSLIALSSEDPFLTAFQLSWELQELSKVENEFKSEYEELSRQCKQFAKDLLDQTRSSRELEIILNYRDDNSLIEEQSGNDLARLKLAIKYRQKEFVAQPNCQQLLASRWYDEFPGWRRRHWAVKMVTCFIIGLLFPVFSVCYLIAPKSPLGLFIRKPFIKFICHTASYLTFLFLLLLASQHIDRSDLNRQGPPPTIVEWMILPWVLGFIWGEIKQMWDGGLQDYIHDWWNLMDFVMNSLYLATISLKIVAFVKYSALNPRESWDMWHPTLVAEALFAIANIFSSLRLISLFTANSHLGPLQISLGRMLLDILKFLFIYCLVLLAFANGLNQLYFYYEETKGLSCKGIRCEKQNNAFSTLFETLQSLFWSIFGLINLYVTNVKAQHEFTEFVGATMFGTYNVISLVVLLNMLIAMMNNSYQLIADHADIEWKFARTKLWMSYFEEGGTLPTPFNVIPSPKSLWYLVKWIWTHLCKKKMRRKPESFGTIGRRAADNLRRHHQYQEVMRNLVKRYVAAMIREAKTEEGLTEENVKELKQDISSFRFEVLGLLRGSK
- stoichiometry N: 4
